“And” between values parts separate entries of the source, which are not always exact repeats. Identical values can stand only once. One block for each molecule: values may come before it.
Experiments:
[1] = molecular target: ANGPTL8 in human serum (human (endogenous in serum)) (UniProt Q6UXH0); assay: affinity purification with mass spectrometry; immunoprecipitation with the anti-ANGPTL3/8 antibody from 1 ml pooled human serum (three pools); on-bead Trypsin/Lys-C digest; LC-MRM with 0.25 pmole stable isotope-labeled peptides, two peptides a protein
[2] = molecular target: T1, ANGPTL3/8 complex containing a FLAG-tag sequence at the C terminus of ANGPTL3 (recombinant, human) (human, UniProt Q9Y5C1 17-460; Q6UXH0 22-198); assay: cell-based or functional assay
T1 sequence (looked up) 1: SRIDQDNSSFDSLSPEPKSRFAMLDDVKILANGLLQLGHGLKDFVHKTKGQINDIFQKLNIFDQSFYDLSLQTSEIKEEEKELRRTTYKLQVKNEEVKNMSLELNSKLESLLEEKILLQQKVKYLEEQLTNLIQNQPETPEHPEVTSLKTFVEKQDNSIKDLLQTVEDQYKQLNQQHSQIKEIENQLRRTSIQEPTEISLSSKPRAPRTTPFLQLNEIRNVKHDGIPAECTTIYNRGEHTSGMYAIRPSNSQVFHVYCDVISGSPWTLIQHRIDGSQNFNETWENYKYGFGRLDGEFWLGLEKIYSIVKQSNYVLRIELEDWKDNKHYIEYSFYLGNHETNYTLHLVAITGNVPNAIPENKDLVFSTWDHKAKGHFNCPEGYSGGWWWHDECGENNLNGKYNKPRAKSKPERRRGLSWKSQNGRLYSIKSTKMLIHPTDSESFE
T1 sequence (looked up) 2: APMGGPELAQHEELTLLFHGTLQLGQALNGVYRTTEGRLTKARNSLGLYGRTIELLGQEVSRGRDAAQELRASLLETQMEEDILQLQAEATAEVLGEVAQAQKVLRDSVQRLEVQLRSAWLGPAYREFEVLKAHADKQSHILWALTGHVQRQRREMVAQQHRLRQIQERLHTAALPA

[3] = molecular target: T1, ANGPTL3/8 complex containing a FLAG-tag …; assay: BLI; Octet RED96e; FLAG-tagged ANGPTL3/8 immobilised by anti-FLAG antibody on streptavidin biosensors; 6.25-100 nM HSA-ApoA5 in solution; background reference subtraction; global fit, 1:1 binding model; conditions: both partners purified
[4] = molecular target: T2, ANGPTL3/8 complex present in human serum (human (endogenous in serum)) (UniProt Q6UXH0); assay: affinity purification with mass spectrometry; immunoprecipitation with the anti-ANGPTL3/8 antibody from 1 ml pooled human serum (three pools); on-bead Trypsin/Lys-C digest; LC-MRM with 0.25 pmole stable isotope-labeled peptides, two peptides a protein
T2 sequence (Q9Y5C1 17-460, looked up): T1 sequence (looked up) 1
T2 sequence (Q6UXH0 22-198, looked up): T1 sequence (looked up) 2

- stoichiometry N [1]: 2.8 and 2.7
Molecule: ANGPTL3 in human serum (natural protein)

- EC50 of HSA-ApoA5 to block the inhibition of LPL activity by 0.3 nM ANGPTL3/8 (human LPL-stable expression cells, EnzChek substrate) [2]: 21 nM
- Kd [3]: 0.52 nM
- koff [3]: 0.000135 s⁻¹
- kon [3]: 260000 M⁻¹ s⁻¹
- protein ratio ApoA5/ANGPTL8 in the immunoprecipitate (ApoA5 per ANGPTL3/8 complex) [4]: 0.5 and 0.53
B1: HSA-ApoA5 (HIS tag-mature HSA-PreScission cleavage site-mature human ApoA5, residues 24-366) (natural protein, UniProt Q6Q788 24-366, looked up)
chain: RKGFWDYFSQTSGDKGRVEQIHQQKMAREPATLKDSLEQDLNNMNKFLEKLRPLSGSEAPRLPQDPVGMRRQLQEELEEVKARLQPYMAEAHELVGWNLEGLRQQLKPYTMDLMEQVALRVQELQEQLRVVGEDTKAQLLGGVDEAWALLQGLQSRVVHHTGRFKELFHPYAESLVSGIGRHVQELHRSVAPHAPASPARLSRCVQVLSRKLTLKAKALHARIQQNLDQLREELSRAFAGTGTEEGAGPDPQMLSEEVRQRLQAFRQDTYLQIAAFTRAIDQETEEVQQQLAPPPPGHSAFAPEFQQTDSGKVLSKLQARLDDLWEDITHSLHDQGHSHLGDP
notes: mature human ApoA5, residues 24-366 of NP_443200.2; Secreted by a mouse IgG kappa signal peptide; source: HEK293, transient transfection, purified from culture media (Ni-NTA, Superdex 200); not shown: His tag, N-terminal, kept; mature human serum albumin (HSA), N-terminal, kept
